Residue numbers refer to the chain shown, from its start. Blank lines part the entries; values can stand above or below the binder they belong to.
Experiments:
[1] = biological target: T1, human PD-L1 on CHO-K1-huPD-L1 cells (human, UniProt Q9NZQ7 19-290); assay: cell-based or functional assay
[2] = biological target: T2, recombinant human PD-L1 protein (Item No. 10084-H08H, Sino Biological) (human, UniProt Q9NZQ7 19-238); assay: SPR, humanization screening
T2 construct: Bought protein; also called huPD-L1; human PD-L1 antigen

[3] = biological target: T2, recombinant human PD-L1 protein (Item …); assay: ELISA, humanization screening
[4] = biological target: T1, human PD-L1 on CHO-K1-huPD-L1 cells; assay: flow cytometry on CHO-K1-huPD-L1 cells; parent chimeric antibody
Procedure: (§1) CHO-K1-huPD-L1 cells overexpressing human PD-L1 were plated in a 96-well plate at 2×10⁴/well, and the 3-fold serial gradient dilutions of the samples to be tested were added at 20 μl/well, and co-incubated with the cells at room temperature for 30 min. The cells were washed by centrifugation to remove unbound antibodies, and 20 μl of R-Phycoerythrin AffiniPure Goat Anti-Human IgG, Fcγ Fragment Specific (Item No.: 109-115-098, Jackson ImmunoResearch; diluted with 1% (w/v) BSA-PBS at 1:200) fluorescent secondary antibodies were added to each well, and incubated for 15 min. The cells were then washed twice, resuspended in 100 μl of 1% (w/v) BSA-PBS, and detected for their fluorescence intensity at 585 nm by flow cytometry (BD, FACS Cantoll) under 488 nm excitation.

[5] = biological target: T3, human PD-L1-moFc recombinant protein (human); assay: flow cytometry, blocking of PD-L1-moFc binding to CHO-K1-huPD-1 cells
T3 construct: also called free PD-L1
Procedure: The antibodies to be tested were diluted with 3-fold gradient, added at 20 μL/well into the 96-well plate with the antigen added, mixed well, and incubated at room temperature for 15 min. CHO-K1-huPD-1 cells overexpressing human PD-1 were added at 2×10⁴/well into the 96-well plate pre-incubated with antigen-antibody, mixed well, and incubated at room temperature for 15 min. The mixture was centrifuged at 300 g for 5 min, the supernatant was removed, and the cells were washed twice with FACS buffer. Anti-moFc-Alexa 488 (Item No.: 115-545-071, Jackson) secondary antibodies were diluted at 1:300, added, mixed well, and incubated at room temperature for 15 min. The cells were washed three times and measured on instrument for the fluorescence intensity on their surfaces.

[6] = biological target: T2, recombinant human PD-L1 protein (Item …); assay: SPR, Biacore 8K, antibody captured as ligand, PD-L1 analyte, 1:1 model
[7] = biological target: T2, recombinant human PD-L1 protein (Item …); assay: SPR, Biacore 8K, antibody captured on anti-human chip, huPD-L1 analyte, 1:1 model
Procedure: The Anti-Human Capture-CM5 chips (Item No.: BR-1005-30, GE) were prepared according to the coupling method of the Human Antibody Captrue Kit (Item No.: BR-1008-39, GE) and the amino coupling kit (Item No.: BR-1000-50, GE). The chips were equilibrated at room temperature for 20-30 min and assembled into the Biacore 8K instrument. B5D1 was diluted to the experimental working concentration with the equilibrium buffer. The antigen was diluted to 50 nM with the equilibrium buffer, and then diluted to give samples with 7 concentration gradients by 3× serial dilution, and 2 samples with zero concentration (i.e. the equilibrium buffer) and a duplicate sample with one concentration (typically, a duplicate sample with the minimum concentration) were set. According to the antibody, the antigen huPD-L1 (Item No.: 10084-H08H, Sino Biological), and the regeneration order, the samples with 10 antigen concentrations (2 with zero concentration, 7 with gradient concentrations and 1 with duplicate concentration) were subject to experimental analysis with an antigen injection flow rate of 30 μl/min, the binding time of 120 seconds, and the dissociation time of 600 seconds.

[8] = biological target: T1, human PD-L1 on CHO-K1-huPD-L1 cells; assay: flow cytometry on CHO-K1-huPD-L1 cells; humanized antibody 900760
Procedure: as §1

[9] = biological target: Cynomolgus PD-L1 (cynomolgus); assay: SPR, Biacore 8K, antibody captured as ligand, PD-L1 analyte, 1:1 model
[10] = biological target: T4, Rabbit PD-L1 (rabbit, UniProt G1SUI3 19-238); assay: as above
T4 sequence: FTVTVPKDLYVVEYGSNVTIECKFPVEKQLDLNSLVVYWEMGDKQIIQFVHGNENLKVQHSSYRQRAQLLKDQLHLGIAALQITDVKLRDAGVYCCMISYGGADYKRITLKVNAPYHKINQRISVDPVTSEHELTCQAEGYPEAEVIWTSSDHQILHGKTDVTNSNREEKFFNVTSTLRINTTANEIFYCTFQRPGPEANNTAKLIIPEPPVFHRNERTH

T1 sequence (Q9NZQ7 19-290): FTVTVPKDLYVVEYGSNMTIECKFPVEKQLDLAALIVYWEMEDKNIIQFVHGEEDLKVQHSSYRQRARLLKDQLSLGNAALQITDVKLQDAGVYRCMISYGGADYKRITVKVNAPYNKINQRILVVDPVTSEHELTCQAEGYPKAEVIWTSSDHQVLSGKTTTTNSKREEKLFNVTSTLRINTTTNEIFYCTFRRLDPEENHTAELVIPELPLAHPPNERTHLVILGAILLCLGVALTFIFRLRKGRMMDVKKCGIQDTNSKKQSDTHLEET
T2 sequence (Q9NZQ7 19-238 limits assumed): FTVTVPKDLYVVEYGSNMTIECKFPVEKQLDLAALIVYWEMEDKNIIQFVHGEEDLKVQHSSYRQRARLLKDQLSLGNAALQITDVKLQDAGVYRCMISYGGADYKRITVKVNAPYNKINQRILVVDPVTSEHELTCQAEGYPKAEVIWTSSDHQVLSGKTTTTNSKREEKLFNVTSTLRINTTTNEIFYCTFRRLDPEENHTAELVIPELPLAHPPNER
T3 sequence (chain, as listed by the source limits assumed): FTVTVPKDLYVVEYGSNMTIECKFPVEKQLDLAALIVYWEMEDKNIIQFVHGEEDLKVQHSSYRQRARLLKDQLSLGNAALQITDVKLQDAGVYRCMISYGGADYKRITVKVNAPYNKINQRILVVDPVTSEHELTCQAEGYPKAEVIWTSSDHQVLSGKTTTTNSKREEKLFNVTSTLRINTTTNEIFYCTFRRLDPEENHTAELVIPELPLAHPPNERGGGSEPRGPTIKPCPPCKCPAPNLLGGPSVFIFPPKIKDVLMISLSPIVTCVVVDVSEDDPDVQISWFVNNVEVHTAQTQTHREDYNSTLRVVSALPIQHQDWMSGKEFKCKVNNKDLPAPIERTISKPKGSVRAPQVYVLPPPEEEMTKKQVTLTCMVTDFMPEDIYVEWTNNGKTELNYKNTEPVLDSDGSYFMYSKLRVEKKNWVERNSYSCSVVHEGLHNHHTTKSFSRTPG

B3: 900245Ab-H2L2 (antibody, human IgG1, kappa, L234A L235A, V domains shown)
VH: QIQLVQSGAEVKKPGASVKVSCKASGYTFTDYYINWVRQAPGQRLEWIGWIYLGSGNAKYNEKFKGRATLTVDTSASTAYMELSSLRSEDTAVYYCARCVGTYWYFDVWGQGTTVTVSS
VL: DIQLTQSPSSLSASVGDRVTITCSASSSVSYMHWYQQKPGKAPKPWIYDTSNVQSGFPSRFSGSGSGTDYTLTISSLQPEDFATYYCHQRSSYPWTFGQGTKLEIKR
notes: Humanized; huVH2 + huVL2 on human IgG1 / Ig kappa constants
- Kd [2]: 0.816 nM
- EC50 [3]: 0.514 µg/mL

B6: 900245Ab-H3L2 (antibody, human IgG1, kappa, L234A L235A, V domains shown)
VH: B3 VH with N61S, E62Q, K65Q
VL: B3 VL
notes: Humanized; huVH3 + huVL2 on human IgG1 / Ig kappa constants
- Kd [2]: 0.764 nM
- EC50 [3]: 0.787 µg/mL

B7: 900245Ab-H4L1 (antibody, human IgG1, kappa, L234A L235A, V domains shown)
VH: B3 VH with I2V, A68V, L70I, C99S
VL: B3 VL with D1Q, I21M, Q54A, S59A, L77M
notes: Humanized; huVH4 + huVL1 on human IgG1 / Ig kappa constants
- Kd [2]: 0.726 nM
- EC50 [3]: 0.589 µg/mL

B10: 900245Ab-H1L1 (antibody, human IgG1, kappa, L234A L235A, V domains shown)
VH: B3 VH with V20I, R67K, Y95F
VL: B3 VL with D1Q, I21M, Q54A, S59A, L77M
notes: Humanized
- Kd [2]: 0.596 nM
- EC50 [3]: 0.361 µg/mL

B11: 900245Ab-H3L1 (antibody, human IgG1, kappa, L234A L235A, V domains shown)
VH: B3 VH with N61S, E62Q, K65Q
VL: B3 VL with D1Q, I21M, Q54A, S59A, L77M
notes: Humanized; huVH3 + huVL1 on human IgG1 / Ig kappa constants
- Kd [2]: 0.576 nM
- EC50 [3]: 0.381 µg/mL

B12: 900245Ab-H2L1 (antibody, human IgG1, kappa, L234A L235A, V domains shown)
VH: B3 VH
VL: B3 VL with D1Q, I21M, Q54A, S59A, L77M
notes: Humanized; huVH2 + huVL1 on human IgG1 / Ig kappa constants
- Kd [2]: 0.639 nM
- EC50 [3]: 0.385 µg/mL

B13: 900245Ab-H3L3 (antibody, human IgG1, kappa, L234A L235A, V domains shown)
VH: B3 VH with N61S, E62Q, K65Q
VL: B3 VL with P45L, W46L, N52S, V53L, F57V
notes: Humanized; huVH3 + huVL3 on human IgG1 / Ig kappa constants
- Kd [2]: 10.4 nM
- EC50 [3]: 8.7 µg/mL

Continued, values first:

- EC50, T cell activation (NFAT-luciferase RLU, Jurkat-NFAT-PD-1-5B8 effector cells with CHO-K1-OS8-PD-L1-8D6 target cells) [1]: 0.287 µg/mL
- Kd [2]: 0.72 nM
- EC50 [3]: 0.499 µg/mL
- EC50 [4]: 0.125 µg/mL
- IC50 [5]: 2.84 µg/mL
- Kd [6]: 0.346 nM
- koff [6]: 0.000127 s⁻¹
- kon [6]: 368000 M⁻¹ s⁻¹
- Kd [7]: 0.0773 nM
- koff [7]: 9.54e-05 s⁻¹
- kon [7]: 1.24e+06 M⁻¹ s⁻¹
B1: chimeric antibody 900245 (antibody, V domains shown)
VH: QIQLQQSGPELVKPGASVKISCKASGYTFTDYYINWVKQRPGQGLEWIGWIYLGSGNAKYNEKFKGKATLTVDTSSSTAYMHLSSLTSEDSAVYFCARCVGTYWYFDVWGAGTTVTVSS
VL: QILLTQSPATMSASPGEKVTMTCSASSSVSYMHWYQQKPGSSPKPWIYDTSNVASGFPARFSGSGSGTSYSLIISSMEAEDAATYYCHQRSSYPWTFGGGTKLEIK
notes: also called parent chimeric antibody; anti-PD-L1 human-mouse chimeric antibody

- EC50, T cell activation (NFAT-luciferase RLU, Jurkat-NFAT-PD-1-5B8 effector cells with CHO-K1-OS8-PD-L1-8D6 target cells) [1]: 0.416 µg/mL
- EC50 [8]: 0.075 µg/mL
- IC50 [5]: 2.27 µg/mL
- Kd [6]: 0.459 nM
- koff [6]: 0.000158 s⁻¹
- kon [6]: 345000 M⁻¹ s⁻¹
- Kd [9]: 0.695 nM
- koff [9]: 0.000138 s⁻¹
- kon [9]: 198000 M⁻¹ s⁻¹
- Kd [10]: 14 nM
- koff [10]: 0.00235 s⁻¹
- kon [10]: 167000 M⁻¹ s⁻¹
B2: humanized anti-PD-L1 antibody No. 900760 (antibody, V domains shown)
VH: B3 VH with I2V, N61S, E62Q, K65Q, A68V, L70I, C99S
VL: QIQLTQSPSSLSASVGDRVTMTCSASSSVSYMHWYQQKPGKAPKPWIYDTSNVASGFPARFSGSGSGTDYTLTISSMQPEDFATYYCHQRSSYPWTFGQGTKLEIK

- Kd [2]: 43.7 nM
- EC50 [3]: ~1520 µg/mL
B4: 900245Ab-H4L3 (antibody, human IgG1, kappa, L234A L235A, V domains shown)
VH: B3 VH with I2V, A68V, L70I, C99S
VL: B3 VL with P45L, W46L, N52S, V53L, F57V
notes: Humanized; huVH4 + huVL3 on human IgG1 / Ig kappa constants

- Kd [2]: 30.9 nM
- EC50 [3]: ~1410 µg/mL
B5: 900245Ab-H5L3 (antibody, human IgG1, kappa, L234A L235A, V domains shown)
VH: B3 VH with I2V, N61S, E62Q, K65Q, A68V, L70I, C99S
VL: B3 VL with P45L, W46L, N52S, V53L, F57V
notes: Humanized; huVH5 + huVL3 on human IgG1 / Ig kappa constants

- Kd [2]: 0.645 nM
- EC50 [3]: 0.502 µg/mL
B8: 900245Ab-H5L1 (antibody, human IgG1, kappa, L234A L235A, V domains shown)
VH: B3 VH with I2V, N61S, E62Q, K65Q, A68V, L70I, C99S
VL: B3 VL with D1Q, I21M, Q54A, S59A, L77M
notes: Humanized; huVH5 + huVL1 on human IgG1 / Ig kappa constants, screening batch from ExpiCHO-s cells; also called CoAD1445

- Kd [2]: 1.97 nM
- EC50 [3]: 1.31 µg/mL
B9: 900245Ab-H4L2 (antibody, human IgG1, kappa, L234A L235A, V domains shown)
VH: B3 VH with I2V, A68V, L70I, C99S
VL: B3 VL
notes: Humanized; huVH4 + huVL2 on human IgG1 / Ig kappa constants

- Kd [2]: 1.67 nM
- EC50 [3]: 0.991 µg/mL
B14: 900245Ab-H5L2 (antibody, human IgG1, kappa, L234A L235A, V domains shown)
VH: B3 VH with I2V, N61S, E62Q, K65Q, A68V, L70I, C99S
VL: B3 VL
notes: Humanized; huVH5 + huVL2 on human IgG1 / Ig kappa constants
